Experiment: yeast display, Sf9 membrane polyspecificity reagent, FACS + sequencing; frameworks hold sequencing errors
Method in brief: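 Sorting gates, low and high (top ~1%), were placed on anti-HA fluorescence to track expression and on streptavidin fluorescence to track reagent binding. A clone's polyreactivity label is taken from the gate it came out of. The reagent was 10% biotinylated, detergent-solubilized Sf9 membrane, applied for 1 hour at 4 °C to galactose-induced yeast display cells.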

Row | Sequence | polyreactivity (PSR sort gate)
1 | QVQHVESGGGLVQAGGSLRLSCAASGSIFYDYAMGWYRQAPGKERELVAAISKSDGSTYYADSVKGRFTISRDNAKNTVYLQMNSLKPEDTAVYYCNADLIYSYPPEYDYWGQGTQVTVSS | high polyreactivity
2 | QVQHVESGGGLVQAGGSLRLSCAASGSISPQNVMGWYRQAPGKERELVAAITGGGYTNYADSVKGRFTISRDNANNTVYLQMNSLKPEDTAVYYCNADYFQDRLDYWGQGTQVTVSS | low polyreactivity
3 | QVQHVESGGGLVQAGGSLRLSCAASGSNSAYAMGWYRQAPGKERELVAAINSGGSTTYADSVKGRFTISRDNAKNTVYLQMNSLKPEDTAVYSCAARAPSFRYGTSNYPAYRLDYWGQGTQVTVSS | high polyreactivity
4 | QVQHVESGGGLVQAGGSLRLSCAASGSTFDGYAMGWYRQAPGKERELVAAISRSGGRTYYADSVKGRFTISRDNAKNTVYLQMTSLKPEDTAVYYCAALYPYKREDYWGQGTQVTVSS | high polyreactivity
5 | QVQHVESGGGLVQAGGSLRLSCAASGSTFDRYAMGWNRQAPGKERELVAAISGGGGSTYYADSVKGRFTISRDNAKNTVYLQMNSLKPEDTAVYYCAKLLARGNRYDSWGQGTQLTVSS | high polyreactivity
6 | QVQHVESGGGLVQAGGSLRLSCAASGSTFDYYAMGWYRQAPGKERELVAAISDSARSTFYADSVKGRFTISRDNAKNTVYLQMNSLKPEDTAVYYCAAYFWSYWRSEGYSWGQGTKVTVSS | high polyreactivity
7 | QVQHVESGGGLVQAGGSLRLSCAASGSTFGYNDMGRYRQAPGKERELVAAIDTGVSTNYADSVKGRFTISRDNAKNTVYLQMNSLKPEDTAVYYCAKSGSAYWHSGWSVGFDYWGQGTQVTVSS | low polyreactivity
8 | QVQHVESGGGLVQAGGSLRLSCAASGSTFPTYAMGWYRQAPGKERELVADITWSGGSTYYADSVKGRFTISRDNAKNTVYLQMNSLKPEDTAVYYCNAAHRKGMYYWGQGTQVTVSS | high polyreactivity
9 | QVQHVESGGGLVQAGGSLRLSCAASGSTFSYYAMGWSRQAPGKERELVAAISGSGASTYYADSVKGRFTISRDNAKNTVYLQMNSLKPEDTAVYYCAKYYVREHYDYWGQGTQVTVSS | low polyreactivity
10 | QVQHVESGGGLVQAGGSLRLSCAASGSTFTGYTMGWYRQAPGKERELVASIRTYYADSVKGRFTISRDNAKNTVYLQMNSLKPEDTAVYYCAADFPSATGGYDYWGQGTQVTVSS | low polyreactivity
11 | QVQHVESGGGLVQAGGSLRLSCAASGSTFTSYALGWYRQAPGKERELVAAISKSGGSTYYADSVKGRFTISRDNAKNTVYLQMNSLKPEDTSVYYCAASYNVRSYSTSRFDYWGQGTQVTVSS | low polyreactivity
12 | QVQHVESGGGLVQAGGSLRLSCAASGSTFTWYTMGWYRQAPGKERELVATIRKRGGSTYYADSVKGRFTISRDNAKNTVYLQMNSLKPEDTAVYYCAAVYKVHSGLYEYWGQGTQVTVSS | high polyreactivity
13 | QVQHVESGGGLVQAGGSLRLSCAASGSTFVQNAMGWYRQAPGKERELVAAISRSGGRTYYAYSVKGRFTISRDNAKNTVYLQMNSLKPEDTAVYYCAARYPVRPDDGYWGKGTQVTVSS | high polyreactivity
14 | QVQHVESGGGLVQAGGSLRLSCAASGSTFWFNAMGWYRQATGKVRELVAAITSGSTYYADSVKGRFTISRDNAKNTVYLPMNSLQPEYTAVYYCASTEFTFYYSYDYWAQGTQVTVSS | low polyreactivity
15 | QVQHVESGGGLVQAGGSLRLSCAASGSTFWGYAMGWYRQAPGKERELVAAINWIGGSDTFYADSVKGRFTISRDNAKNTVYLQMNSLKPEDTAVYYCAATYYNLPYSWGYDSWGQGSQVTVSS | low polyreactivity
16 | QVQHVESGGGLVQAGGSLRLSCAASGSTFYGYAMGWYRQAPGKERELVARISSSSGRTYYADSVKGRFTISRDNAKNTVYLQMNSLKPEDTAVFYCAARFLWSVFGRKGGYWGQGTQVTVSS | low polyreactivity

Row | Sequence | polyreactivity (PSR sort gate)
17 | QVQHVESGGGLVQAGGSLRLSCAASGSTLGGYVMGWYRQAPGKERELVASITYSGGSTRYADSVKGRFTISRDNAKNTVYLQMNSLKPEDTAVYYCAAGAQRTYYTYSFRRVGYDYDYWGQGTQVTVSS | low polyreactivity
18 | QVQHVESGGGLVQAGGSLRLSCAASGSTSGKYAMGWYRQAPGKERELVAGITKGGGGTYYADSVKGRFTISRDNAKNTVYLQLNSLKPEVTAVYYCAKYYGSGYYIYDYWGQGTQVTVSS | low polyreactivity
19 | QVQHVESGGGLVQAGGSLRLSCAASGTTFYSYAMGWYRQAPGKERELVAAISWRTSSTYYADSVKGRFTISRDNAKNTVYLQMNSLKPEDTAVYYCAAETWLGSWRQVGMDYWGQGTQVTVSS | high polyreactivity
20 | QVQHVESGGGLVQAGGSLRLSCAASGYTFGGNAMGWYRQAPGKERELVAAISSGGSTNYADSVKGRFTISRDNAKNTVYLQMNSLKPEDTAVYYCNKRGYYYWSGQDVASYDYWGQGTQLTVSS | low polyreactivity
21 | QVQHVESGGGLVQAGGSLRLSCAASGYTFRYYAMGWYRQAPGKERELVARINRSGGSTYYADSVKGRFTISRDYAKYTVYLQMNSLKPEDTAVYYCNRDYGWHYSYDYWGQGTQVTVSS | high polyreactivity
22 | QVQHVESGGGLVQAGGSLRLSCAASVLIFYIYAMGWYRQAPGKERELVAAITTGGRTNYADSVKGRFTISRDNAKNTVYLQMKSLKPEDTEVYYCAKDFPIWISHGPDTDNDYGGQGTQVTVSS | low polyreactivity
23 | QVQHVESGGGLVQAGGSLRLSCADSGSTLRGNAMGWYRQAPGKEREMVAAISIGSRTNYADSVKGRFTISRDNAKNTDYLQMNSLKPEDTAVYYCAKDISLRVRGPYYFGFDYWGQGTQVTVSS | low polyreactivity
24 | QVQHVESGGGLVQAGGSLRLSCAPSGSIFRPYAMGWSRQAPGKEMELVAAISFSGAGTYYADSVKGRFTISRDNAKNTVYLQMNSLTPEDTAVYYCNARRYTTYWLLYEYDYWGQGTQVTVSS | low polyreactivity
25 | QVQHVESGGGLVQAGGSLRLSCAPSGSTFYNNAMGWYRQAPGKERELVAAITRSGGSTYYADSVKGRFTISRDNAKNTVYLQMNSLKPEDTEVYYCNKYGYKGGVGYDYWGQGTQVTVSS | high polyreactivity
26 | QVQHVESGGGLVQAGGSLRLSCGASGRIFRRYAMGWYSLAAVKEREFVAAISYGGGSTYYADSVKGRFTISRDNAKNTVYLQMNSLKPEDSAVYYCNADVPKSLLLYYPWGYGYWGQGTQVTVSS | low polyreactivity
27 | QVQHVESGGGLVQAGGSLRLSCSASGSTFGLYAMGWSRQAPGKETELVAVISWRGGSTYYADSVKGRFTISRDNAKNTVYLQMNSLKPEDTAVYYCAAYSRYPYVRYDYWGQGTQVTVSS | low polyreactivity
28 | QVQHVESGGGLVQAGGSLRLSSAASGFIFILYAMGWYTQAPGKERELVAAISSCGTRTYYADSVKGRFTISRDNAKNTVYLQMISLKPEDTGVYYCNTAWRDYVARLGGVGYDYWGQGTQVTVSS | high polyreactivity
29 | QVQHVESGGGLVQAGGSLRLSSAASGFTFNRYAMGWNSQAPGKESELVATITSGGNTYYADSVKGRFTLSRDNAKNTVYLEMNTLKPEDTAVYYCNNRGWYSVYRRDYWGQGTQVTVSS | high polyreactivity
30 | QVQHVESGGGLVQAGGSLRLTCAASGYIFYYNAMGWYRHAPGKEREMVAAINYSGTSTYYADSVKGRFTISRDNAKNTVYLQMNSLKPEDTAVFYCAKVPHYPLAGRLAILDYWGQGSQVTVSS | high polyreactivity
31 | QVQHVESGGGLVQAGGSLRLTCAATGFTFATYTMGWYRQAPGKERELFAAISSGGNTNYADSVKGRFTISRDNAKNTVYLQMNSLKPEDTAVYYCARGATLLQYYYWGVYEYDSWGQGTQVTVSS | low polyreactivity

— the nanobody polyreactivity screen of Harvey et al. (2022)
